Experimental data reported in publication PMC11844742, “Structural basis of aquaporin-4 autoantibody binding in neuromyelitis optica” (Science Advances, 2025).
Where “and” joins values, the source holds several entries; their conditions need not be identical. Equal values may be shown once. Each block holds one binder with its values, some of them ahead of it.

Tests used:
Conditions in all cases: both partners purified
[1] = biological target: T1, human aquaporin-4 (AQP4) isoform M1, full length, tetramer in MSP1E3D1 lipid nanodiscs (human, UniProt P55087-1); assay: cryo-EM structure; AQP4 M1 in nanodiscs (0.3 uM) mixed with ~5-fold molar excess of Fab58; no symmetry imposed; 2.5 A
T1 construct: aquaporin-4, human, isoform M1, full length (residues 1 to 323); synthesized gene in pPICZ; a thrombin cleavage site lies between the tags and the protein; Homo-tetramer embedded in a nanodisc (soybean polar lipids, MSP1E3D1); for BLI the MSP 1E3D1 was biotinylated; also called AQP4 M1; M1 tetramer; not shown: 8xHis, N-terminal, kept
T1 sequence (P55087 whole entry, the tested form may be a part, canonical isoform): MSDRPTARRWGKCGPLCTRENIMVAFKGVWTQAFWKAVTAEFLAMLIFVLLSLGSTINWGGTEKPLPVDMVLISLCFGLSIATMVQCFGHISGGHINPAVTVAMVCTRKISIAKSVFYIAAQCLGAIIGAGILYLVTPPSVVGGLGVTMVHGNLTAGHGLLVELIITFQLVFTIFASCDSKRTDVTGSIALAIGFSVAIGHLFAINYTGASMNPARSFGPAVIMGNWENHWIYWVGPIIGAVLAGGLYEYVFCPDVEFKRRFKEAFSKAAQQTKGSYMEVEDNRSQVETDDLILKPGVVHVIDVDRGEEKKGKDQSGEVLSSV

[2] = biological target: T2, human aquaporin-4 (AQP4) isoform M1, full length, tetramer in detergent (human, UniProt P55087-1); assay: cryo-EM structure; AQP4 in detergent, 18 uM, mixed with ~75 uM Fab186; ~12 uM AQP4 on grids; no symmetry imposed; 2.9 A
T2 construct: aquaporin-4, human, isoform M1, full length (residues 1 to 323); synthesized gene in pPICZ; The purification protocol says the N-terminal tag was cleaved by thrombin; also called AQP4 M1; AQP4 in detergent; source: Pichia pastoris X-33 (strain MG3), purified in DDM (Ni-NTA, thrombin cleavage, cobalt resin, SEC Superdex 200); not shown: 8xHis, N-terminal, cleaved
T2 sequence (P55087 whole entry, the tested form may be a part, canonical isoform): as above

[3] = biological target: T1, human aquaporin-4 (AQP4) isoform M1, …; assay: cryo-EM 2D classification; AQP4 M1 in nanodiscs mixed with 30-fold molar excess of Fab186; severe orientation bias, no high-resolution map

- stoichiometry N [1]: 1 Fab per AQP4 tetramer
B1: Fab58, Fab fragment of patient-derived NMO recombinant antibody rAb58 (Fab, V domains shown)
VH: QVQLVESGGGLVQPGGSLRLSCAASGFTFRGYAMNWVRQAPGKGLEWVASISGSGSITQYADSAKGRFTITRDNSKSTLYAHVSSLRADDTAVYYCAKGDYVFDYWGQGTLVTVSS
VL: DIQMTQSPSALSASVGDTVTITCRASQSIRSWLAWYQQKPGKAPKLLIYKASDLQSGVPSRFSGSGSGTDFTLTISGLQPDDFATYYCQHYNSYPYTFGQGTKVEIR
notes: heavy chain (HC) of Fab58 in the deposited model PDB 8V91; light chain (LC) of Fab58 in the deposited model PDB 8V91; also called rAB58 Fab; source: rAb58 IgG from Expi293F (MabSelect purified), papain cleavage (Pierce Fab kit), Fc removed with Protein A agarose

- stoichiometry N [2]: ≤ 4 Fab per AQP4 tetramer and 3 Fab per AQP4 tetramer
- stoichiometry N [3]: 4 Fab per AQP4 tetramer
B2: Fab186, Fab fragment of patient-derived NMO recombinant antibody rAb186 (Fab, V domains shown)
VH: QVQLQESGPGLVKPSQTLPLTCTVSGGYISSGSHQWGWIRQPAGKGLEWIGRIYTSGSTNYNPSLKSRVTISVDTSKNQFSLKLSSVTAADTAVYYCARVNYDLLTGRANFFDPWGQGTPVTVSS
VL: EIVLTQSPGTLSLSPGERATLSCRASQSVSSRSVAWYQQKPGQAPRLLIYGASNRATGIPDRFSGSGSGTDFTLTISRLEPEDFVVFYCQQYGSSPLTFGGGTKVEIK
notes: heavy chain (HC) of Fab186 in the deposited model PDB 8V9D; light chain (LC) of Fab186 in the deposited model PDB 8V9D; also called rAB186 Fab; source: rAb186 IgG from Expi293F (MabSelect purified), papain cleavage (Pierce Fab kit), Fc removed with Protein A agarose
